For the assay, the target named is T1, recombinant human full length Fzd7 (human, UniProt O75084 33-574).
T1 construct: also called full-length recombinant Fzd7
The experiment in a line: co-IP; recombinant human full-length Fzd7 and ILK mixed 1:1 in lysis buffer, incubated overnight at 4 °C with antibody (anti-Fzd7 in Fig. 4D); Western blot for ILK and Fzd7. To be noted: both partners purified. (In general: A western blot detects proteins with antibodies after separation by electrophoresis.)

B1: recombinant human full-length ILK (enzyme, UniProt Q13418 1-452, looked up)
chain: MDDIFTQCREGNAVAVRLWLDNTENDLNQGDDHGFSPLHWACREGRSAVVEMLIMRGARINVMNRGDDTPLHLAASHGHRDIVQKLLQYKADINAVNEHGNVPLHYACFWGQDQVAEDLVANGALVSICNKYGEMPVDKAKAPLRELLRERAEKMGQNLNRIPYKDTFWKGTTRTRPRNGTLNKHSGIDFKQLNFLTKLNENHSGELWKGRWQGNDIVVKVLKVRDWSTRKSRDFNEECPRLRIFSHPNVLPVLGACQSPPAPHPTLITHWMPYGSLYNVLHEGTNFVVDQSQAVKFALDMARGMAFLHTLEPLIPRHALNSRSVMIDEDMTARISMADVKFSFQCPGRMYAPAWVAPEALQKKPEDTNRRSADMWSFAVLLWELVTREVPFADLSNMEIGMKVALEGLRPTIPPGISPHVCKLMKICMNEDPAKRPKFDMIVPILEKMQDK
notes: Integrin-linked kinase (ILK), human, recombinant, full length; also called full-length recombinant ILK
Regarding B1, the binding result is reported as “binds”.
